Data from the supplement of paper PMC9170038.

Tested on: MS2 coat protein
Assay: apparent KD of MS2 coat protein; designed switch direction (-1 OFF switch, 1 ON switch): -1; higher = weaker reporter binding
Outline: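 Transcription of designed RNA switches on Illumina chips was done by stalled E. coli RNA polymerase. SNAP-549-labelled MS2 coat protein was then titrated in doubling steps from 0.7 or 1.5 nM to 3 µM, with steps of 0.8–1.5 h at the lowest and 10–20 min at the highest concentration. The per-design median over clusters of curve-fitted normalised fluorescence is reported as apparent KD.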

[1] = input ligand: microRNA oligo, concentration not stated
[2] = Eterna round: R95, input ligand: FMN 200 uM
[3] = Eterna round: R95, input ligand: microRNA oligo, concentration not stated
[4] = Eterna round: R95, input ligand: none

| Sequence | apparent KD of MS2 coat protein (input ligand: FMN 200 uM) [nM] | apparent KD of MS2 coat protein (input ligand: none) [nM] | other results |
| --- | --- | --- | --- |
| CAUGCUUCAUAGGAUAUGGAAGACGUACCGUCGCUAGAAGGAUGAACAUGAGGAUCACCCAUGUAAUACAGGGC [Eternabot (L2) Solution 64] (Eterna round: R97, puzzle: Exclusion 6) | 169 | 68.6 |  |
| CAUGGAUGUGAGCCGCAUUACAUGAGGAUCACCCAUGUCAACAAGCUUUUUGCUUGUCUUACGCGGCGGCACCAGAA [Getelexe] (Eterna round: R96, puzzle: Sensor v3, turn-off variant 1) | 13 | 14.9 | apparent KD of MS2 coat protein [1]: 6.81 nM |
| CAUGGAUGUGAGCCGCAUUACAUGAGGAUCACCCAUGUCAACAAGCUUUUUGCUUGUCUUACGCGGCGGCACCAGAA [Getelexe] (puzzle: Sensor v3, turn-off variant 1) |  |  | apparent KD of MS2 coat protein [2]: 14.3 nM; apparent KD of MS2 coat protein [3]: 8.03 nM; apparent KD of MS2 coat protein [4]: 10.8 nM |
| CAUGUGUUAGGAUAUGCACAGAUCUCCUAAUGGAGAUCUGUGCAGAAGGGACAUGAGGAUCACCCAUGUUGAUG [Mod of Brourd 14 - Jieux - Exclusion 4] (Eterna round: R97, puzzle: Exclusion 4) | 78.6 | 48.6 |  |
| CAUGUUUGUCGUUGAUCCAACAUGAGGAUCACCCAUGUCUCUUUAGCUUUUUGCUCGUCUUAUCCUCCUUUGUUCAC [JR_STOV1_v2_Sub0101] (Eterna round: R97, puzzle: Sensor, turn-off variant 1) | 65.5 | 401 |  |
| CAUUACUGCAGGCUUUGGGACAUGAGGAUCACCCAUGUUCGUCUUAUUGAUCUAGGUACGCUGACGUACCUAGAUCU [JL-sv1-2.26 Brourd mod] (puzzle: Sensor v3, turn-off variant 1) |  |  | apparent KD of MS2 coat protein [2]: 17.6 nM; apparent KD of MS2 coat protein [3]: 20.8 nM; apparent KD of MS2 coat protein [4]: 15.1 nM |
| CAUUAUUAUCGAGGAUAUCGUAUUGAGAUACUAUGAGAAGGCGGGAUAAACAUGAGGAUCACCCAUGUGAGCCGGAUGCUUGUG [Ex NG1 #36] (Eterna round: R96, puzzle: Exclusion NG 1) |  |  | apparent KD of MS2 coat protein [1]: 13.5 nM |
| CAUUGUGUUGAGGAUAUGCGCCGGCUCGCUGGCGCAGAAGGCGGCACAUGAGGAUCACCCAUGUCAGUUCGCGA [salish99_ex6_r004_416] (Eterna round: R97, puzzle: Exclusion 6) | 452 | 38 |  |
| CAUUGUUAUCGAGGAUAUCGUAUUGAGAUACUACGAGAAGGCGGACUAAACAUGAGGAUCACCCAUGUGAGACGGAUGCUUGGG [Ex NG1 #33] (Eterna round: R96, puzzle: Exclusion NG 1) | 59 | 34.3 | apparent KD of MS2 coat protein [1]: 21 nM |
| CAUUUCUGUCGUUGAUCCAACAUGAGGAUCACCCAUGUCUCUUUAGCUUUUUGCUCGUCUUAUCCUCCUUUGUUCAC [JR_STOV1_Sub099] (Eterna round: R97, puzzle: Sensor, turn-off variant 1) | 499 | 835 |  |
| CAUUUGUGAGGAUAUCAGGUGUGCUAGCGUACUGGUACAUCUGAGAAGGCACAUGAGGAUCACCCAUGUUCCUC [Mat - Exclusion 4 - Mod of JL - D35] (puzzle: Exclusion 4) |  |  | apparent KD of MS2 coat protein [3]: 44.1 nM |
| CAUUUGUGAGGAUAUCAGGUGUGCUAGCGUACUGGUACAUCUGAGAAGGCACAUGAGGAUCACCCAUGUUUCUU [Mat - Exclusion 4 - Mod of JL - D37] (puzzle: Exclusion 4) |  |  | apparent KD of MS2 coat protein [3]: 15.9 nM |
| CCAAUGUAAGGAUAUCGUGCAAGUUUCAAAAGAGGCUUGUGCGAGAAGGUACAUGAGGAUCACCCAUGUAGGUU [Omei Ex4 B2] (Eterna round: R97, puzzle: Exclusion 4) | 340 | 78.4 |  |
| CCACCUCACGUCAGGAUAUCCAUCUCGAGUGAGGAGGAGAAGGGACAUGAGGAUCACCCAUGUAUAGAAAGAAA [Veaonce] (Eterna round: R97, puzzle: Brourd's mod of Exclusion 4) | 35.1 | 22.1 |  |
| CCACGACAUGAGGAUCACCCAUGUGAGGAUAUGGCCUGAAAAGCGUGAGCAGAAUCAAUCAGAAGGCGCGUGGG [salish99_ex1_r4_060] (Eterna round: R97, puzzle: Exclusion 1) | 73.2 | 45.7 |  |
| CCACUGUCAGGAUAUCGUGCAUAACGUUAACAAUUUAUGUGCGAGAAGGGACAUGAGGAUCACCCAUGUAAACG [Omei Ex4 A28PK4] (Eterna round: R97, puzzle: Exclusion 4) | 233 | 166 |  |
| CCAGUGUGAGGAUAUACAUGGAUAGUUUUAUAUAGUAUGUUACAUGAGGAUCACCCAUGUAGAAGGUAUAUCGG [15.1, 13.8 kcal, A 31%] (Eterna round: R97, puzzle: Exclusion 2) | 22.5 | 28.7 |  |
| CCAUAUAACUGAGGAUAUGAUCACCACUAACAUUCAGAAGGCAGACAUGAGGAUCACCCAUGUGAUUUCUCAAUAUUAUACAUC [Prohibition 76 - Jieux - Exclusion NG 1] (Eterna round: R96, puzzle: Exclusion NG 1) |  |  | apparent KD of MS2 coat protein [1]: 375 nM |

| Sequence | apparent KD of MS2 coat protein (input ligand: FMN 200 uM) [nM] | apparent KD of MS2 coat protein (input ligand: none) [nM] | other results |
| --- | --- | --- | --- |
| CCAUCACAUGAGGAUCACCCAUGUUAGGAUAUCGUGCUGAUACCAUGUAUUGAAGUAGCGAGAAGGAGCGUUGG [Eternabot (L1) Solution 53] (Eterna round: R97, puzzle: Exclusion 1) | 83.6 | 48 |  |
| CCAUCGAGUGUGAGGAUAUGCUGUUCCUUGGAGCAGCAGAAGGCACAUGAGGAUCACCCAUGUGGAUACGGUGG [Mat - Exclusion 4 - JL Mod - D80] (puzzle: Brourd's mod of Exclusion 4) |  |  | apparent KD of MS2 coat protein [3]: 33.4 nM |
| CCAUCGUGUGUGAGGAUAUGCUGGUCCUUGGAUCAGCAGAAGGCACAUGAGGAUCACCCAUGUGAAUACGAUGG [Mat - Exclusion 4 - JL Mod - D87] (puzzle: Brourd's mod of Exclusion 4) |  |  | apparent KD of MS2 coat protein [3]: 14.9 nM |
| CCAUGUAGAGGAUAUCUUAAGCUAGACAUGAGGAUCACCCAUGUGACUAUUCCUAUGAGCGGAGAAGGCUGAACCA [Eternabot (L2) Solution 64] (Eterna round: R97, puzzle: Exclusion 5) | 29.7 | 29.6 |  |
| CCCACAAGCUUUUUGCUCGACAUGAGGAUCACCCAUGUAAAAUGGGUUAUAUAUAUAUGAAACAUAUAUAUAUACCU [-21.6, -47.5 kcal, A 35%] (Eterna round: R97, puzzle: Sensor, turn-off variant 1) | 43.9 | 47.6 |  |
| CCCAGAUAGGAAGGAUAUUGUACAUGAGGAUCACCCAUGUAAUAAAUGAGGAUCACGGAUGUAGACAAGAAGGUCCGGAUAAGC [Ostracism 6 - Jieux - Exclusion NG 2] (Eterna round: R96, puzzle: Exclusion NG 2) | 57.5 | 39.5 | apparent KD of MS2 coat protein [1]: 29.3 nM |
| CCCAGGUCAUCUCCCGGGAACAACAUGAGGAUCACCCAUGUCUAGGAUAUCCACCAGUCAAUAAAGGAGAAGGAGACGGUGGUU [Edatarte] (Eterna round: R96, puzzle: Exclusion NG 3) |  |  | apparent KD of MS2 coat protein [1]: 20.2 nM |
| CCCAGUUACGGAGGAUAUUGUACAUGAGGAUCACCCAUGUAAUAAAUGAGGAUUUCGGGUGUCUACAAGAAGGCCGGGAUAGGC [Ostracism 18 - Jieux - Exclusion NG 2] (Eterna round: R96, puzzle: Exclusion NG 2) | 262 | 66 | apparent KD of MS2 coat protein [1]: 85.3 nM |
| CCCAGUUAGGAAGGAUAUUGUACAUGAGGAUCACCCAUGUAAUAAAUGAGGAUCACGGAUGUAGACAAGAAGGUCCGGAUAGGC [Ostracism 8 - Jieux - Exclusion NG 2] (Eterna round: R96, puzzle: Exclusion NG 2) | 104 | 55.5 | apparent KD of MS2 coat protein [1]: 41.5 nM |
| CCCAUGUCAGGAUAUUAAUUGAGCAGGAAGCCCUGUCCACUUGAGAAGGGACAUGAGGAUCACCCAUGUAAAAC [Radiaena] (Eterna round: R97, puzzle: Exclusion 4) | 138 | 417 |  |
| CCCGCACGAGUUAGGAUAUCAUUUGUCGAGAUAGGUGAGAAGGAACUUGAGGAUCACCCAAGUGUCCCGGGAAA [Maquso] (Eterna round: R97, puzzle: Brourd's mod of Exclusion 4) | 37.5 | 20.1 |  |
| CCCGGGUUAGGAUAUUCCUCGUGCAGCUGACAGCCACGGGAGAAGAAGGGACAUGAGGAUCACCCAUGUGAAUA [Eternabot (L2) Solution 47] (Eterna round: R97, puzzle: Exclusion 4) | 42 | 32.9 |  |
| CCCUCACAUGAGGAUCACCCAUGUCAGGAUAUCCAAGGCGAUCACCAAAAUAAAGCAAGGAGAAGGGACUUGGC [Enona] (Eterna round: R97, puzzle: Exclusion 1) | 71.5 | 41.4 |  |
| CCCUCACAUGAGGAUCACCCAUGUCAGGAUAUCUAGUCAGAUAGUGUAGCACUAAUGAAGAGAAGGGACGUAUA [Lezagees] (puzzle: Exclusion 1) |  |  | apparent KD of MS2 coat protein [3]: 16.9 nM |
| CCCUCACAUGAGGAUCACCCAUGUCAGGAUAUUCAAAGCGCAAAUGCGCCAAAUGCAGGAAGAAGGGACGUGCC [Bisoar] (Eterna round: R96, puzzle: Exclusion 1) | 18.6 | 15 | apparent KD of MS2 coat protein [1]: 10.3 nM |
| CCCUCACAUGAGGAUCACCCAUGUCAGGAUAUUCAAAGCGCAAAUGCGCCAAAUGCAGGAAGAAGGGACGUGCC [Bisoar] (puzzle: Exclusion 1) |  |  | apparent KD of MS2 coat protein [3]: 13.3 nM |
| CCCUCACAUGAGGAUCACCCAUGUCAGGAUAUUCGGCGGUCAAUUGACCGCCUUAAAGGAAGAAGGGACGUAAA [Masore] (puzzle: Exclusion 1) |  |  | apparent KD of MS2 coat protein [3]: 11.8 nM |
